Data taken from patent US20230012273A1 (Boehringer Ingelheim, published 2023).

T1: cynoSIRPα (NP_001271679), Extracellular Domain + His-Tag (cynomolgus monkey)
T1 construct: also called CySIRPα NP_001271679; not shown: His-Tag
T1 chain: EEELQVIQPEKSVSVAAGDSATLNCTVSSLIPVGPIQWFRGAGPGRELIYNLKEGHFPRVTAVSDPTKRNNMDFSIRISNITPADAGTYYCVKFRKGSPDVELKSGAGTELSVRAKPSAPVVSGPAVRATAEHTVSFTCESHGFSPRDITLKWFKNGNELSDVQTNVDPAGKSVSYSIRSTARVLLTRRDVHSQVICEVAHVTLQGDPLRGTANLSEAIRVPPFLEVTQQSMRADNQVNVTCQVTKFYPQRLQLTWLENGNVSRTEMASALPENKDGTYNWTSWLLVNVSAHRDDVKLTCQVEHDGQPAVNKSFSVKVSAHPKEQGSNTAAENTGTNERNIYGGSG

T2: cynoSIRPα (EGM_02252), Extracellular Domain + His-Tag (cynomolgus monkey)
T2 construct: also called CySIRPα EGM_02252; not shown: His-Tag
T2 chain: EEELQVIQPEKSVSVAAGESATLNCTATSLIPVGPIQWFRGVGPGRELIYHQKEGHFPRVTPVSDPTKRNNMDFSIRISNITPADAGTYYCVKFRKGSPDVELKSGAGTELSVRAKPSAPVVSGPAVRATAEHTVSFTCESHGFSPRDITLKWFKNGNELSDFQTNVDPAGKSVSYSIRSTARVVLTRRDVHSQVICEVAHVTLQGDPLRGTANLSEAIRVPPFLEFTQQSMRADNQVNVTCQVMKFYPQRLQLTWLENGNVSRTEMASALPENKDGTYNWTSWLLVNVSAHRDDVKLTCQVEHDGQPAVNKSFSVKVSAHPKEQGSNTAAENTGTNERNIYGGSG

T3: cynoSIRPα (XP_015313155), Extracellular Domain + His-Tag (cynomolgus monkey)
T3 construct: also called CySIRPα XP_015313155; not shown: His-Tag
T3 chain: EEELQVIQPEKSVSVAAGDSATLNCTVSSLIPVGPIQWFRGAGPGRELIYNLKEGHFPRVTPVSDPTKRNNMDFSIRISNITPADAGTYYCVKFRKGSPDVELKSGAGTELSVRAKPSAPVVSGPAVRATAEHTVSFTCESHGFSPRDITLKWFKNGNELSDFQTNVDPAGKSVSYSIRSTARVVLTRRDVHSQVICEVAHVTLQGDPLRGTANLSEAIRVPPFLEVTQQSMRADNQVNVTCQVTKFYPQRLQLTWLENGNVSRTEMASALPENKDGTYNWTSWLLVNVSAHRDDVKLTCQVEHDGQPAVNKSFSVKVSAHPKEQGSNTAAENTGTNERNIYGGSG


Tests used:
[1] = target: T4, human SIRPαV1 extracellular domain + His-tag (NP_542970.1) (human, UniProt P78324 31-373); assay: SPR, Ab captured, ECD-His analyte
T4 construct: also called hSIRPαV1; HuSIRPαV1
Protocol: (§1) The binding affinity of anti-SIRPα antibodies to the various SIRPα analytes is determined by surface plasmon resonance (SPR) using a ProteOn XPR36 (Bio-Rad). The running buffer for this experiment and all dilutions (except where stated) are done in 1×HBS-EP+. […] The sensorchip is deactivated with 1M ethanolamine HCl for 420 sec at a flowrate of 10 μl/min.
(§2) The analyte is injected over the captured antibody for 300 sec at a flowrate of 30 μl/min. The dissociation is done for 600 sec. Two-fold serial dilutions of each SIRP protein (Extracellular Domain+His-Tag) are injected as analyte with the highest concentrations indicated in table 36 below.

[2] = target: T5, human SIRPαV2 extracellular domain + His-tag (CAA71403.1) (human, UniProt P78324 31-373); assay: SPR, Ab captured, ECD-His analyte
T5 construct: also called hSIRPαV2; HuSIRPαV2
Protocol: as §1, §2

[3] = target: T6, human SIRPβ1 extracellular domain + His-tag (NP_006056.2) (human, UniProt O00241 30-371); assay: SPR, Ab captured, ECD-His analyte
T6 construct: also called hSIRPβ1; HuSIRPβ1
Protocol: as §1, §2

[4] = target: T7, human SIRPβL/SIRPβ1v3 extracellular domain + His-tag (NP_001129316.1) (human, UniProt Q5TFQ8 30-371); assay: SPR, Ab captured, ECD-His analyte
T7 construct: also called hSIRPβ1v3; HuSIRPβ1v3
Protocol: as §1, §2

[5] = target: T8, human SIRPγ extracellular domain + His-tag (NP_061026.2) (human, UniProt Q9P1W8 29-360); assay: SPR, Ab captured, ECD-His analyte
T8 construct: also called hSIRPγ; HuSIRPγ
Protocol: as §1, §2

[6] = target: T1, cynoSIRPα (NP_001271679), Extracellular …; assay: SPR, antibody captured on Protein A/G, ECD-His analyte, 1:1 fit
Method in brief: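 Biacore 8K+ at HBS-EP+, with antibodies (~1 ug/ml) captured on Protein A/G CM5 surface to ~240 RU. SIRPα ECD-His analyte dilutions injected at 30 μl/min for 300 s association, 600 s dissociation.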

[7] = target: T2, cynoSIRPα (EGM_02252), Extracellular …; assay: SPR, antibody captured on Protein A/G, ECD-His analyte, steady-state fit
Protocol: (§3) The binding kinetics of anti-SIRPα antibodies to various SIRPα analytes are determined by surface plasmon resonance (SPR) using a Biacore 8K+(Cytiva). 1×HBS-EP+(Cytiva) is used as running buffer and for all the dilutions unless stated otherwise. The Series S CM5 sensorchip is activated with a 1:1 mixture of 0.1 M NHS (N-hydroxysuccinimide) and 0.4 M EDC (1-Ethyl-3-(3-dimethylaminopropyl) carbodiimide hydrochloride) for 420 seconds at a flow rate of 10 μl/min and immobilized with Protein A/G (Thermo Scientific, 10 μg/ml in 10 mM acetate pH 4.5) for 420 seconds at a flowrate of 10 μl/min resulting in approximately 3000 RU of Protein A/G on the surface. The sensorchip is then deactivated with 1 M ethanolamine HCl pH 8.5 for 420 seconds at a flowrate of 10 μl/min.
(§4) Antibodies (approximately 1 ug/ml) are captured on the Protein A/G surface for 60 seconds at a flowrate of 10 μl/min resulting in capture levels of approximately 240 RU. Dilutions of each SIRP protein (Extracellular Domain+His-Tag, with the concentrations as indicated) are injected as analytes over the captured antibody for 300 seconds of association at a flowrate of 30 μl/min, followed by a dissociation for 600 seconds.
(§5) The above procedures are used to measure binding properties of antibodies of the present disclosure. For each analyte used, the highest concentration was as indicated in Example 3 (see Table 36).

[8] = target: T3, cynoSIRPα (XP_015313155), Extracellular …; assay: as above
Protocol: as §3, §4, §5

T6 sequence (O00241 other isoform, or with tags, fused parts or gaps): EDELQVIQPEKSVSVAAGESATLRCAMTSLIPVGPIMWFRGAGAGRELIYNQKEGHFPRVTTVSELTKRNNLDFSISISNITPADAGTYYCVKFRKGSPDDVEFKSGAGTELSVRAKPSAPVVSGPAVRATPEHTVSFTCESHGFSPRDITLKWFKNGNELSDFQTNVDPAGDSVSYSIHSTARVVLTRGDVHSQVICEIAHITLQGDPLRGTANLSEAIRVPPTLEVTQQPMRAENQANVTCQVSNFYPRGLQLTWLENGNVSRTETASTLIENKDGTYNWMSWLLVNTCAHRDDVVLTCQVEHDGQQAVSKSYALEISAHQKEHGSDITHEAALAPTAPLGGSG
T8 sequence (Q9P1W8 29-360): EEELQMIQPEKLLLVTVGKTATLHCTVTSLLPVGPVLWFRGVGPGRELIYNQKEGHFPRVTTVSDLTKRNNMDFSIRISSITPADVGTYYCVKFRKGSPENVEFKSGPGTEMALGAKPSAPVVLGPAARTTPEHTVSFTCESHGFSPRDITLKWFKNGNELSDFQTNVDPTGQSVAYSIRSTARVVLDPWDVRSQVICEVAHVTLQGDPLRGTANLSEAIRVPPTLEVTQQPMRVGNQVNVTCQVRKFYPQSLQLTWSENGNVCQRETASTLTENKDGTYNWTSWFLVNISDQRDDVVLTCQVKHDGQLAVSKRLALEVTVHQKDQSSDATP
T5 sequence (P78324 other isoform, or with tags, fused parts or gaps): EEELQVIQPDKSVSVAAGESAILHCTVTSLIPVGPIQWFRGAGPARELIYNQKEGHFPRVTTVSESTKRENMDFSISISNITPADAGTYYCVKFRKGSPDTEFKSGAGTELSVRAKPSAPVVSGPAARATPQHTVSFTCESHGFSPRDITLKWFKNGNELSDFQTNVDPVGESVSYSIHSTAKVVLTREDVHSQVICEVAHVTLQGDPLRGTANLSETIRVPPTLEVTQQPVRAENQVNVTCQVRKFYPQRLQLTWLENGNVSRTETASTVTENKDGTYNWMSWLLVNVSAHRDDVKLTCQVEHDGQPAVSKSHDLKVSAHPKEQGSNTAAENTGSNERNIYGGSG
T7 sequence (Q5TFQ8 other isoform, or with tags, fused parts or gaps): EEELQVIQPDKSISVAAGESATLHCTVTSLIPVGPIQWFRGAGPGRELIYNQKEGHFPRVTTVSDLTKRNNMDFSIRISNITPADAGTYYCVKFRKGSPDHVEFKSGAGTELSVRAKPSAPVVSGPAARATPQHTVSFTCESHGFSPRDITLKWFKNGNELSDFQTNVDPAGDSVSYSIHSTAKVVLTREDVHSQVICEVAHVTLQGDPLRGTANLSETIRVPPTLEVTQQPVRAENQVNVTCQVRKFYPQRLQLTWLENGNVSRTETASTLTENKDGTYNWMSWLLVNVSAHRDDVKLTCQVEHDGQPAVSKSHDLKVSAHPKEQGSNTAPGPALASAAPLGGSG
T4 sequence (P78324 other isoform, or with tags, fused parts or gaps): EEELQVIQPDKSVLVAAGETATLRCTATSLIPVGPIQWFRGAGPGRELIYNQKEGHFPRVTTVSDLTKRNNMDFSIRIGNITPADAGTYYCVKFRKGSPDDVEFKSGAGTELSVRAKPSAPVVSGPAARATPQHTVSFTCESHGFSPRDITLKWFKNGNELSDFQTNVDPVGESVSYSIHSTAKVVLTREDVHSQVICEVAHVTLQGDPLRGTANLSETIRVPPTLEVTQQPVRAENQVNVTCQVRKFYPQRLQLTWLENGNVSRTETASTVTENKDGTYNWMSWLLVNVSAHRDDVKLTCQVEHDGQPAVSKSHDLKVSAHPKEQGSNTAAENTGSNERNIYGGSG

Row | Binder | Kd [1] [nM] | Kd [2] [nM] | binding result [3] | Kd [4] [nM] | binding result [5] | Kd [3] [nM] | Kd [6] [nM] | koff [6] [s⁻¹] | kon [6] [M⁻¹ s⁻¹] | Kd [7] [nM] | Kd [8] [nM]
1 | Antibody E2 (antibody, human IgG1, kappa, L234A L235A, V domains shown) VH: QVQLQESGPGLVRPSETLSLTCTVSGGSIRNYYWSWIRQPPGKGLEWIGFIYYNGRTFYNPSLKSRVTISLDMSINQFSLKMTSVTAADTAVYYCARVRAYSGIGLDGTDVWGQGTTVTVSS VL: DIVMTQSPLSLPVTPGEPASISCKSSQSLLYSNGYAYLDWYLQRPGQSPQLLIYLGSNRASGVPDRFSGSGSGTDFTLKISRVEAEDVGVYYCMQALQTPLTFGGGTKVEIKR | 0.912 | 0.687 | no binding (tested: 1000 nM) | 1.93 | no binding (tested: 1000 nM) | – | – | – | – | – | –
2 | Antibody E5 (antibody, human IgG1, kappa, L234A L235A, V domains shown) VH: QVQLQESGPGLVRPSETLSLTCTVSGGSIRNYYWSWIRQPPGKGLEWIGFIYYNGRTFYNPSLKSRVTISLDKSKNQFSLKMTSVTAADTAVYYCARVRAYSGIGLDGTDVWGQGTTVTVSS VL: DIVMTQSPLSLPVTPGEPASISCKSSQSLLYSNGYAYLDWYLQRPGQSPQLLIYQGSNRASGVPDRFSGSGSGTDFTLKISRVEAEDVGVFYCMQALQTPLTFGGGTKVEIKR | 1.02 | 0.873 | – | 2.72 | no binding (tested: 1000 nM) | 1380 | – | – | – | – | –
3 | Antibody E6 (antibody, human IgG1, kappa, L234A L235A, V domains shown) VH: QVQLQESGPGLVRPSETLSLTCTVSGGSIRNYYWSWIRQPPGKGLEWIGFIYYNGRTFYNPSLKSRVTISLDKSKNQFSLKMTSVTAADTAVYYCARVRAYSGIGLDGTDVWGQGTTVTVSS VL: DIVMTQSPLSLPVTPGEPASISCKSSQSLLYSNGYAYLDWYLQRPGQSPQLLIYLGSNRASGVPDRFSGSGSGTDFTLKISRVEAEDVGVYYCMQALQTPLTFGGGTKVEIKR | 1.03 | 0.875 | no binding (tested: 1000 nM) | 2.72 | no binding (tested: 1000 nM) | – | – | – | – | – | –
4 | Antibody A (antibody, human IgG1, kappa, L234A L235A) heavy: not shown light: DIQMTQSPSSLSASVGDRVTITCRASQDINNYLAWFQQKPGKAPKSLIYTASSLHSGVPSKFSGSGSGTDFTLTISSLQPEDFATYYCQQYVSYPYTFGQGTKLEIKRTVAAPSVFIFPPSDEQLKSGTASVVCLLNNFYPREAKVQWKVDNALQSGNSQESVTEQDSKDSTYSLSSTLTLSKADYEKHKVYACEVTHQGLSSPVTKSFNRGEC | – | – | – | – | – | – | 158 | 0.138 | 873000 | 258 | 165

Now from value to binder:

Row | Kd [1] [nM] | Kd [2] [nM] | binding result [3] | Kd [4] [nM] | binding result [5] | Kd [3] [nM] | Kd [6] [nM] | koff [6] [s⁻¹] | kon [6] [M⁻¹ s⁻¹] | Kd [7] [nM] | Kd [8] [nM] | Binder
5 | 1.67 | 1.26 | – | 3.43 | no binding (tested: 1000 nM) | 1670 | – | – | – | – | – | Antibody E12 (antibody, human IgG1, kappa, L234A L235A, V domains shown) VH: QVQLQESGPGLVRPSETLSLTCTVSGGSIRNYYWSWIRQPPGKGLEWIGFIYYNGRTFYNPSLKSRVTISLDMSKNQFSLKMTSVTAADTAVYYCARVRAYSGIGLDGTDVWGQGTTVTVSS VL: DIVMTQSPLSLPVTPGEPASISCKSSQSLLYSNAYNYLDWYLQRPGQSPQLLIYLGSNRASGVPDRFSGSGSGTDFTLKISRVEAEDVGVYYCMQALQTPLTFGGGTKVEIKR
6 | 1.21 | 0.542 | – | 2.58 | no binding (tested: 1000 nM) | 2420 | – | – | – | – | – | Antibody E8 (antibody, human IgG1, kappa, L234A L235A, V domains shown) VH: QVQLQESGPGLVRPSETLSLTCTVSGGSIRNYYWSWIRQPPGKGLEWMGFIYDNGRTFYNPSLKSRVTISLDMSMNQFSLKMTSVTAADTAVYYCARVRAYSGIGLDGTDVWGQGTTVTVSS VL: DIVMTQSPLSLPVTPGEPASISCKSSQSLLYSNGYAYLDWYLQRPGQSPQLLIYQGSNRASGVPDRFSGSGSGTDFTLKISRVEAEDVGVFYCMQALQTPLTFGGGTKVEIKR
7 | 1.7 | 0.69 | no binding (tested: 1000 nM) | 4.17 | no binding (tested: 1000 nM) | – | – | – | – | – | – | Antibody E13 (antibody, human IgG1, kappa, L234A L235A, V domains shown) VH: QVQLQESGPGLVRPSETLSLTCTVSGGSIRNYYWSWIRQPPGKGLEWIGFIYYTGRTFYNPSLKSRVTISLDMSINQFSLKMTSVTAADTAVYYCARVRAYSGIGLDGTDVWGQGTTVTVSS VL: DIVMTQSPLSLPVTPGEPASISCKSSQSLLYSNGYAYLDWYLQRPGQSPQLLIYQGSNRASGVPDRFSGSGSGTDFTLKISRVEAEDVGVFYCMQALQTPLTFGGGTKVEIKR
8 | 1.2 | 1.18 | – | 2.21 | no binding (tested: 1000 nM) | 874 | – | – | – | – | – | Antibody E7 (antibody, human IgG1, kappa, L234A L235A, V domains shown) VH: QVQLQESGPGLVRPSETLSLTCTVSGGSIRNYYWSWIRQPPGKGLEWIGFIYYNGRTFYNPSLKSRVTISLDTSKNQFSLKMTSVTAADTAVYYCARVRAYSGIGLDGTDVWGQGTTVTVSS VL: DIVMTQSPLSLPVTPGEPASISCKSSQSLLYSNGYAYLDWYLQRPGQSPQLLIYQGSNRASGVPDRFSGSGSGTDFTLKISRVEAEDVGVFYCMQALQTPLTFGGGTKVEIKR
9 | 1.22 | 0.941 | no binding (tested: 1000 nM) | 3.16 | no binding (tested: 1000 nM) | – | – | – | – | – | – | Antibody E9 (antibody, human IgG1, kappa, L234A L235A, V domains shown) VH: QVQLQESGPGLVRPSETLSLTCTVSGGSIRNYYWSWIRQPPGKGLEWIGFIYYNGRTFYNPSLKSRVTISLDMSINQFSLKMTSVTAADTAVYYCARVRAYSGIGLDGTDVWGQGTTVTVSS VL: DIVMTQSPLSLPVTPGEPASISCKSSQSLLYSNAYNYLDWYLQRPGQSPQLLIYLGSNRASGVPDRFSGSGSGTDFTLKISRVEAEDVGVYYCMQALQTPLTFGGGTKVEIKR
